Publication PMC9030890

Target: recombinant stabilised complete spike protein (SARS-CoV-2), pre-fusion (SARS-CoV-2) (UniProt P0DTC2)
Experiment: affinity purification with mass spectrometry

Which mean MALDI-ToF peak intensity of HSA eluted from the beads does the source give for “human serum albumin (from UniProt P02768 25-609) (natural protein)” here?
Its mean MALDI-ToF peak intensity of HSA eluted from the beads is 1920 AU.
